Reference: article PMC12354898, “Collagen VI microfibril structure reveals mechanism for molecular assembly and clustering of inherited pathogenic mutations” (Nature Communications, 2025)

Target: T1, mini-collagen VI α1 chain, ColVIα1^C1C2 (human, UniProt P12109 566-1028)
T1 construct: human collagen VI α1 chain, UniProt P12109 aa 566-1028: nine Gly-X-Y triplets, coiled coil region, C1 and C2 vWA domains; Synthetic gene cloned into pHLSec with AgeI and XhoI; one chain of the disulphide-bonded heterotrimer α1α2α3^C1C2; also called α1 chain of α1α2α3^C1C2; source: Expi293F, co-transfected with the other two chains, secreted; in conditioned media, and purified (Strep-Tactin XT, …)
T1 sequence (looked up): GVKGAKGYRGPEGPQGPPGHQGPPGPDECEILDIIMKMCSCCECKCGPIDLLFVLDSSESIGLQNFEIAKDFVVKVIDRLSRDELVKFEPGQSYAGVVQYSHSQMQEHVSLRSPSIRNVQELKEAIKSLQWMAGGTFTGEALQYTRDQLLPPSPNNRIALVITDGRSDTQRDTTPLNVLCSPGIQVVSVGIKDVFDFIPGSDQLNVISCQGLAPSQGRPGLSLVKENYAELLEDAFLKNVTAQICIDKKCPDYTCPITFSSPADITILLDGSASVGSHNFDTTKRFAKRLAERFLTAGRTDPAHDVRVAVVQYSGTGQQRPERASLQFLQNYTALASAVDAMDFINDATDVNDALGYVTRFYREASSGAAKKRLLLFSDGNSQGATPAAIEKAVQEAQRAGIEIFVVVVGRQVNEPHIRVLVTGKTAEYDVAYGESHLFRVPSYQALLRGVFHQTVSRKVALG
Test: pull-down; three chains co-expressed in Expi293F; sequential affinity steps from conditioned media (Strep-Tactin XT for Twin-Strep α2, Ni-Sepharose for His α1, anti-FLAG M2 for α3; Fig. 5f: Twin-strep then His-tag); eluates on reduced and non-reduced SDS-PAGE
Settings: partners not purified

- binding result: binds
B1: mini-collagen VI α2 chain, ColVIα2^C1C2 (domain or fragment, human, UniProt P12110 564-1019, looked up)
chain: GEPGPRGPRGVPGPEGEPGPPGDPGLTECDVMTYVRETCGCCDCEKRCGALDVVFVIDSSESIGYTNFTLEKNFVINVVNRLGAIAKDPKSETGTRVGVVQYSHEGTFEAIQLDDERIDSLSSFKEAVKNLEWIAGGTWTPSALKFAYDRLIKESRRQKTRVFAVVITDGRHDPRDDDLNLRALCDRDVTVTAIGIGDMFHEKHESENLYSIACDKPQQVRNMTLFSDLVAEKFIDDMEDVLCPDPQIVCPDLPCQTELSVAQCTQRPVDIVFLLDGSERLGEQNFHKARRFVEQVARRLTLARRDDDPLNARVALLQFGGPGEQQVAFPLSHNLTAIHEALETTQYLNSFSHVGAGVVHAINAIVRSPRGGARRHAELSFVFLTDGVTGNDSLHESAHSMRKQNVVPTVLALGSDVDMDVLTTLSLGDRAAVFHEKDYDSLAQPGFFDRFIRWIC
notes: human collagen VI α2 chain, UniProt P12110 aa 564-1019: nine Gly-X-Y triplets, coiled coil region, C1 and C2 vWA domains; Synthetic gene cloned into pHLSec with AgeI and XhoI; density for two N-linked glycans on this chain in the cryoEM map; also called α2 chain of α1α2α3^C1C2; source: Expi293F, co-transfected with the other two chains, secreted; in conditioned media, and purified (Strep-Tactin …)
